# Source: the domain aggregation screens of Martell et al. (2025)
# Experiment: soluble fraction after stress (log2 fold change); higher = more stays soluble; pooled small domains, quantitative proteomics
# Settings: stress: pH 4
# How it was run: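 Custom libraries of small protein domains were pooled and measured with high-throughput quantitative proteomics after pH 4 stress. The read-out is the fold change in the amount of each domain that stays soluble after the acid stress, taken as a measure of aggregation propensity. Fold changes are on a log2 scale, and higher values mean more of the domain stayed soluble.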
row,Sequence,soluble fraction (log2)
1,HMERTVEVVDINDVFSQFLRLYSRERAAGLLSVFKRVEHGLSWQGNPVLLERILSNVFENAIKYAA,-0.424
2,HMILNPADEEKMNLINFELQQRGLEINDKEMQYIFTHHSRDLNSLLNLAEKLDEISHQEKKSISINLIKKI,-0.158
3,HMQRGRTFSIVLNWKGRLLSTQMFFPQFTRPTKEQVTFEINKVYPGAMVYYYNPIEKDPSQPLV,0.0658
4,HMQKRDQKKRANMLDSLKVGTRIVTIGGIFGEIAKIKDDRIRIKVAEDVEIWIRRAAVGTVIT,≥ 0.43
5,HMVMIPDLVGETIEDAKDILEGLGFEVEVRSEFPESDWGRPFARVTSLSPSAGQEVAKGTLVIIRSF,-0.144
6,HMRITEGEIVEIQEGDNRALVGVGEKLEGIISLDEIRGADGKLLFNVGDKITVMVMGHYNERPK,-0.429
7,HMDAINITTYKGQITLTGTKTGTLVGIYNTAGMLVKSMMSKGEKLYFDNLPSGVYIIKVGEEEPRKVQVI,≥ 0.43
8,HMKRDEYIAQLKKYLKRLPKKEYDSAIEYFTEYFDEAGPERELEVIQELGQPKEAAKEMLLQLLNE,-0.506
9,HMRPILTLEEAKAKALAHAGLKADQVTFTEAKLDWDDGKQVYDIEFYTADFKEYDYEIDAKTGEVLEVDY,0.0375
10,HMSKSPELMEKIKEFAEGYFRENGETPSNKTIAGAMGMGRSTVYYYLVDMAQRGMISYENGVISTEKIRKL,-0.65
11,HMTIRLKELRKQKGNTQAEVAKILGTNQSQYGKYENERTQLSLDNAKILSDYFGVSVPYLLGLDDNP,-0.486
12,HMTNELVNVNKLLDVMEPSIPLTALEIMTRLGIKSKETLRNSYLNPAIKLGMINLTSPLKPTSKNQMYYK,0.111
13,HMKNYYEVLGVPRDAAAPDIKRAFRKLAKQFHPDHNPGDAKAEERFKLVSQAYDVLGDEEKRKLYDQFGE,0.254
14,HMNATLSSSYPTSVVTDGEIYKLTFGLNGKYNGQEQITVKPHGDSNIYDSGGLRAYQNTQSNNVVTLN,-0.254
15,HMGIKSSASLQEAAEKAQSAYYDIEHSGVATAVDIQRAWVAMVAAQIDAGEKLDSGTITLYERLKTST,-0.0327
16,HMTTKGGLVRDTVLNEFRDSEFTRREVELVLNGVASERTIRGALSEMVERGELTQVNFGISTRYRLNQ,-0.536
17,HMTGRHEEAIQELKRTLELHPQKPKIFLLLGVSYLRLNNLKKAVEAFNTVLLLQPKNQKALTMLKEIKKR,-0.113
18,HMKTKHISIAEGMSLYTRDRSPFYWGYLNIEGVIHKKSLKTDVVDEAIKLLSIWKNELLNSITK,-0.414
19,HMLNEIMDTINKYISDKRNNKVAQNILSAALDELNSQIRVGLKDLNPHSIEEFKENVINSPYIEFEQG,-0.126

row,Sequence,soluble fraction (log2)
1,HMNHGDATTETQAEIMAILSDMKPHPITELNTIKRPYEQIDTALTYLINEEKIYRMDGMIFIG,-0.915
2,HMNLLGERIREIRMEMGLTAKELAQRASVTPGYISQIEHDQIKPSMNVMMRIAEVLNVPMAALLM,≥ 0.43
3,HMDIGTRQRIIAAAMELFRQKGMDGMSMRELAERAGVNKGLLHYYFTTKEAIFREVFVHQVEM,-0.0208
4,HMRRRVIGTLVMGDMSTDFKVLADGHTHRVLAAAISFHKAKPGDEVVILVPKSAPSKWAAVEHVMK,≥ 0.43
5,HMFADLNPDENYGQVYIRTNTIDNLYQTLLDNKTRIHPNGLLELKPWGQKEFSILDPDKNLLTFGES,-0.317
6,HMLELLSMEDIQRTRVGDLIATVRQVDRQHALVLDRDPETGKPAVRGIFSLSQISLRLGLNI,-0.733
7,HMGVIDTLSGPQKAAAILVAIGRPSASRLLKHFNAEDLRKLAGHARTLEPISPLDFEHLVKQFEDSFAEG,-0.745
8,HMAPADLSPEERVVLDALALEPVHVDALAAKLGRRSEELLTSLTLMEMRGLAVAHAGSRYSRATMT,-0.934
9,HMPYEHQRAVGALIRRLREQQGWSQRALADWVHMDQSAVSRVETGQRSVTAEELGRFADALHVSTDALVR,0.059
10,HMGQDTTIVVRRGESLLGIAARLLPATDFYTTGELAEGIRTASGMENDRLIPGQTLRVPLNSG,0.0588
11,HMKRQDFEFLVNLLRQNAGWDFDEEQYFVVDKKISNFIREKGYASVEDLIDELKVGAKPLISQVVESLAL,-2.01
12,HMSGQKDVPDLYGMTVKQAKKEVEAAGFKLKEGKEVYSNDYSKGQIAEQDPESGSKAKKGSSITVHVSKG,0.22
13,HMKLRLGVNIDPVATVRNARGSAYPDPVRAAIIAQEAGADGITAHLREDRRHIVDQDITSIIKAIDIPLNF,-0.0902
14,HMGNFFDSAILALKNAIQENYGGNVSQAARSLGISVPTLHTWIKGDRKPSLEKLSPILDALNAKIVL,-0.276
15,HMRAPETEITYTEFKTALRAGQIETATVGIEQISGKLTDGDLYRTVRVDDPDLLKDLEANHVNAAGRV,-0.0386
16,HMVKSDLVGHRFILVEDVTPKLTPKYHYSGINWKLITTDNLVAGTRVEVIQVDVGKFHIKAIK,-0.82
17,HMSQAVEISSVKTQIDGKSYYLHTIKQGQTLYGISKAYGVSVEELTTVNPETSKGLKVGQIIKVPDTKT,-0.303
18,HMSPSTNKTFSFSKENISIGQTVFIKKLNQNATVLTLPNKSNQLQVQFGVITMNVKLEDLALPTN,-0.0832
19,HMPPSGPWEQDPPSEAQLKPFNEAMKRTADIDVDLYEKAKKALNDGTITKGNIYDWINREDSPWVLQDGS,-0.468
